Consider one protein from publication doi:10.1101/2020.09.01.278846 (bioRxiv, 2020).

The data set deals with the molecule itself. In words: bead aggregation assay.

B1: hs PCDH24 EC1-MAD10Fc (Fc fusion)
chain: NVAPKFLANMTSVILPEDLPVGAQAFWLVAEDQDNDPLTYGMSGPNAYFFAVTPKTGEVKLASALDYETLYTFKVTISVSDPYIQVQREMLVIVEDRNDNAPVFQNTAFSTSINETLPVGSVVFSVLAVDKDMGSAGMVVYSIEKVIPSTGDSEHLFRILANGSIVLNGSLSYNNKSAFYQLELKACDLGGMYHNTFTIQCSLPVFLSISVVDQPDLDPQFVREFYSASVAEDAAKGTSVLTVEAVDGDKGINDPVIYSISYSTRPGWFDIGADGVIRVNGSLDREQLLEADEEVQLQVTATETHLNIYGQEAKVSIWVTVRVMDVNDHKPEFYNCSLPACTFTPEEAQVNFTGYVDEHASPRIPIDDLTMVVYDPDKGSNGTFLLSLGGPDAEAFSVSPERAVGSASVQVLVRVSALVDYERQTAMAVQVVATDSVSQNFSVAMVTIHLRDINDHRPTFPQSLYVLTVPEHSATGSVVTDSIHATDPDTGAWGQITYSLLPGNGADLFQVDPVSGTVTVRNGELLDRESQAVYYLTLQATDGGNLSSSTTLQIHLLDINDNAPVVSGSYNIFVQEEEGNVSVTIQAHDNDEPGTNNSRLLFNLLPGPYSHNFSLDPDTGLLRNLGPLDREAIDPALEGRIVLTVLVSDCGEPVLGTKVNVTITVEDINDNLPIFNQSSYNFTVKEEDPGVLVGVVKAWDADQTEANNRISFSLSGSGANYFMIRGLVLGAGWAEGYLRLPPDVSLDYETQPVFNLTVSAENPDPQGGETIVDVCVNVKDVNDNPPTLDVASLRGIRVAENGSQHGQVAVVVASDVDTSAQLEIQLVNILCTKAGVDVGSLCWGWFSVAANGSVYINQSKAIDYEACDLVTLVVRACDLATDPGFQAYSNNGSLLITIEDVNDNAPYFLPENKTFVIIPELVLPNREVASVRARDDDSGNNGVILFSILRVDFISKDGATIPFQGVFSIFTSSEADVFAGSIQPVTSLDSTLQGTYQVTVQARDRPSLGPFLEATTTLNLFTVDQSYRSRLQFSTPKEEVGANRQAINAALTQATRTTVYIVDIQDIDSAARARPHSYLDAYFVFPNGSALTLDELSVMIRNDQDSLTQLLQLGLVVLGSQESQESDLSKQLIS
As to B1, the binding result is on record as “binds”.
